Here are results for five proteins from patent publication US20060160990A1 (RIKEN, published 2006).

Residue numbers refer to the chain shown, from its start. Numbers in names are those of the source.

Data set [1] deals with the molecule itself. Nature of the data set: self-association; pseudonative SDS/PAGE, 12.5% acrylamide, not boiled. An excerpt: (§1) In Momiji, asparagine (N) at position 11 was substituted with arginine (R), leucine (L) at position 29 was substituted with threonine (T), tyrosine (Y) at position 122 was substituted with glutamic acid (E), lysine (K) at position 136 was substituted with asparagine (N), glutamine (Q) at position 138 was substituted with leucine (L), glutamine (Q) at position 142 was substituted with proline (P), asparagine (N) at position 159 was substituted with aspartic acid (D), alanine (A) at position 161 was substituted with serine (S), tyrosine (Y) at position 190 was substituted with threonine (T), phenylalanine (F) at position 192 was substituted with tyrosine (Y), cysteine (C) at position 196 was substituted with serine (S), and 6 amino acids from position 224 to position 229 were deleted. By such operations, the above Momiji became a dimer (FIG. 24). This dimer had fluorescence properties that ultraviolet ray-irradiation-dependently change from green to red, which were equivalent to those of Momiji (FIG. 25). This mutant was named as d16. The amino acid sequence and nucleotide sequence of d16 are shown in SEQ ID NOS: 15 and 16, respectively.

Data set [2] concerns the molecule itself. Put plainly: self-association; pseudonative SDS/PAGE, 12.5% acrylamide, sample not boiled. From the text: Since Kaede forms a tetramer, there may be cases where its expression pattern becomes abnormal when another protein is fused with Kaede. Thus, in Kaede, threonine (T) at position 158 was substituted with arginine (R), and alanine (A) at position 160 was substituted with glutamic acid (E), so as to produce a dimeric mutant. This mutant was named as Kaede 2. The amino acid sequence and nucleotide sequence of Kaede 2 are shown in SEQ ID NOS: 7 and 8 in the sequence listing, respectively. In electrophoresis on 12.5% acrylamide gel where sample was not boiled (Pseudonative SDS/PAGE), a band of Kaede 2 was detected as a molecule with a lower molecular weight than that of Kaede (FIG. 8).

Data set [3] concerns the molecule itself. Nature of the data set: self-association; pseudonative SDS/PAGE, 12.5% acrylamide.
From the text: as §1

Data set [4] concerns the molecule itself. Nature of the data set: pseudonative SDS/PAGE, 12.5% acrylamide gel (self-association).

B1: Momiji (fluorescent protein derived from Scolymia vitiensis) (other)
chain: MVSVIKDEMKVNLRMEGSVNGHDFVIDGLGSGKPKEGTQTIELKVVKGGPLPFAYDILTTAFHYGNRVFAKYPKDIPNYFEQSFPEGYSWERSMIFEDGGICIARNDITMDGGTFYNKVRFYGVNFPPNGPVMQKKTQKWEQSTEKMYARDGVLTGDINMALLLKGGGHYRCDFRTTFKAKEKGVKLPGYHFIDHCIEILSHRNDYNNVTLFEHAVARSGLQDKEKQQQ
notes: Found to be a tetramer by pseudonative SDS/PAGE; also called WT (Momiji); wild type (Momiji); not shown: His-tag from the pET28 vector, said to be at the N-terminus
Consider B1, for which the binding result in data set [1] was “binds”.

B2: Kaede (fluorescent protein derived from Trachyphyllia geoffroyi) (other)
chain: MSLIKPEMKIKLLMEGNVNGHQFVIEGDGKGHPFEGKQSMDLVVKEGAPLPFAYDILTTAFHYGNRVFAKYPDHIPDYFKQSFPKGFSWERSLMFEDGGVCIATNDITLKGDTFFNKVRFDGVNFPPNGPVMQKKTLKWEASTEKMYLRDGVLTGDITMALLLKGDVHYRCDFRTTYKSRQEGVKLPGYHFVDHCISILRHDKDYNEVKLYEHAVAHSGLPDNVK
notes: also called first fluorescent protein of the present invention; not shown: N-terminal His-tag from the pRSETB vector
Take B2: the binding result in data set [2] was “binds”.

B3: Kaede 2 (dimeric mutant of Kaede, T158R and A160E) (other)
chain: B2 chain with T158R, A160E
notes: No tag or expression construct is stated for the gel sample
Turning to B3, the binding result in data set [2] is on record as “binds”.

B4: d16 (dimeric mutant of Momiji) (other)
chain: MVSVIKDEMKVRLRMEGSVNGHDFVIDGTGSGKPKEGTQTIELKVVKGGPLPFAYDILTTAFHYGNRVFAKYPKDIPNYFEQSFPEGYSWERSMIFEDGGICIARNDITMDGGTFYNKVRFEGVNFPPNGPVMQKNTLKWEPSTEKMYARDGVLTGDIDMSLLLKGGGHYRCDFRTTFKAKEKGVKLPGTHYIDHSIEILSHRNDYNNVTLFEHAVARSGLQD
notes: No tag is stated for the gel sample
With B4, in data set [3], the binding result is listed as “binds”.

B5: m16 (monomeric mutant of Momiji) (other)
chain: B4 chain with I95T, I101V, I103T, V124T, N136K, F174M, F212Y
notes: as for B4
Consider B5, for which, in data set [4], the binding result is on record as “no binding”.
